Measurements published in the DeepSol protein solubility set.

assay: soluble on expression in E. coli; label from the status in PepcDB or PDB records

Sequence	soluble on expression in E. coli
MSLEGNLEELVYFYPPSTTPPAVGKYTQLISDLLQSVSIVDALPRGAAQAGILCQDTKEVLESENTVLEIAIPRQDNLVIVGDIHGQFADMLSNVLSIQLNLNNTKATDGRGSPSTEIYKFLFLGDYVDRGPQSLEVITLLFALKVEYPEHIFLLRGNHEEAQTSRLYGFFQECKSKLEGTGDRGPASVDITSSTWLQYNTVFCWLPLAAVVACPSGMFFCTHGGLSPHTLSVPLLRSLRRNEYGMVDDFEDTFYTPTSRGGDDMLEGPGAKARLVIDGLLWSDPEDQVSGCQMNNRGCGFIFGPDVTRSFLDRNYSYGFPPSKRQLIGEMKPGMQFILRGHQCAREGYMWCHGGLVLTLFSAPNYCGMHGNKGAVALLRGQVQAGKDRVELEFNVYDTVVRGGSDNLVACLSPFAFAHYFSGDSEGHHHHHH	soluble
MAHHHHHHMGGVRGGRNKSHKLPVKFMAAAKQELVNSRLTLQEELLHSAFDDHSAYRMRITGLKQQNLDLSFTVSELEEQVRDLYTYIHEKRFARQVDEQGNEIAVMTPRPRGVPLALQTELGIDLRHSTANILSELSTLSINMKHQLNSALLRARQLHTLSAWLDEGNETSVSGGGVGGMLERVSEAAAIPVFPVSAWPSIPHFLRTFIAPDVPNYFWTETQAACILYNFFKRYKAIRRRARFVRDNKMLAPRVYQLFEHREVLLTRLDAGKEDVAAAEENTPFGYVVTQFAREVLANLSPQNTQPHLPLVLPGTVALRFPQTSSTPSQSKSLQSGERRG	not soluble
MGSDKIHHHHHHMMKILFIYRHPSMGFSIGKVFRPIEEEMKKYAEVDSIYMPTSQYSLNSIWQNIKTTRKAINSKKYDIVHITGTEHYLIPFLLGEKVVVTVHDLGHYFDIHGLKKILFWIMQIFSLKFAKAITCISNFTVQELKKTISIKNNKISVIFNEVDKNFSFKEKEFNKDYPVILHIGTRPHKNLSRTIKALNGIKCKLRIIGEITNKELDLLQKYKTDYSFASNLSDNDLLKEYQNADIINFPSCHEGFGMPIIEGQAVGRIVVTSNIEPMISVANNGAAICDPYNIESIRNTYIRVINDFQYRNDIILKGIDNVKKYSIETVAKQYFELYKTL	not soluble
MKFFDREREINEILHILNREPDDIYFIYGPLNSGKTALIKHIIENKLSDDYKVFYINFRTYLISEKREFIEAIFTTKKDDFFEKIKDKDEVLNLITKGVRILTGIPIPEVEFDKLFEEKINDAFQYLNSLLLEVKKSGKKPILIFDELQMIKDVVLNTENQRFSAFPSLRFGNGQKYLLKELFQFLVSLTKEQHLCHVFCLSSDSLFIEYVYSTGELEGRAKYLLVDDFDKETALKFMDFLAVENNINLTNEDKELIYSYVGGKPKDIKYVVEESKFKDLREILEFMLKDAVQKLDMFLDMLNYSKPKVDVGDEVIEIKKDNVIEALKLFKDEYEVSKKHIPVPVYTYLIKRNILFLNPIEGILKPQSYLVWNAIKRLL	not soluble
MGSDKIHHHHHHSKNSLPILDSFLFNLEGNTLTVTASDAETRLVTSVDVMNAQGAGLFAVSAKILLDPLKELPEQPLTFDINDENLEIFIHFQNGKYNFIGQKGDTYPQQKPLNDNAISISMDAQMLLNGISRSLFATADDELRPVMNGVYFDIHTDDLTFVASDGHKLVRLRNLAVKSPERASFILPKKPANLLKNLLAKESEQVLIKFDDNNAYITCTNFEMVCRLIEGRYPNYNSVIPQENPFKVTIDRISFLNALKRVSVFSNPASSLVKLHLKDSLITVSAQDIDFSTSAEERIVCQFDGTELSIGFKATYLIEILGNISSEEVVLELADPSRAGLIVPSENDEDEDLLMLLMPMMLND	not soluble
MLLKSIHHIAIICSDYEKSKAFYVHKLGFQVIQETYREERGSYKLDLSLNGSYVIELFSFPDPPERQTRPEAAGLRHLAFTVGSLDKAVQELHEKGIETEPIRTDPLTGKRFTFFFDPDQLPLELYEQ	not soluble
AAVIEKRATCSNGKTVGDASCCAWFDVLDDIQQNLFHGGQCGAEAHESIRLVFHDSIAISPAMEAQGKFGGGGADGSIMIFDDIETAFHPNIGLDEIVKLQKPFVQKHGVTPGDFIAFAGAVALSNCPGAPQMNFFTGRAPATQPAPDGLVPEPFHTVDQIINRVNDAGEFDELELVFMLSAHSVAAVNDVDPTVQGLPFDSTPGIFDSQFFVETQLRGTAFPGSGGNQGEVESPLPGEIRIQSDHTIARDSRTACEWQSFVNNQSKLVDDFQFIFLALTQLGQDPNAMTDCSDVIPQSKPIPGNLPFSFFPAGKTIKDVEQACAETPFPTLTTLPGPETSVQRIPPPPGA	soluble
RSDTTIVATVNPRDKQTTLVSLARDTYVDIPGQGKQDKLNHAYAFGGASLAMDTVENYLNIPINHYVSINMAGLKELVNAVGGIEVNNNLTFSQDGYDFTIGKISLDGEQALSYSRMRYEDPNGDYGRQERQRKVIEGIVQKVLS	not soluble
MAPVIRRAKEIDLYCLNSLMYKLHDEHHQQCPDLFKTASEIEEEKSIARYLDDPECMVYVAEMDDVIIGFITGHFCELISTVSKLVMMATIDELYIEKEYRREGVAEQLMMRIEQELKDYGVKEIFVEVWDFNKGALEFYNKQGLNEHIHYLRKPLNRLEHHHHHH	soluble
MVQLDGGQFEMGTKATDGKDGESPVMQVKVLPFAIDKYPVTNRDFREFVRAKKYKTEAEAFGWSFVFEDFVSEELKKKVTQKLESAPWWLPVERAFWRQVSNLSVPLLLSGGSKGLFAAE	not soluble
MAHHHHHHMEEEKAGSSELVLAQESAWDKFGSKLKDMPFLNNFFENPILGKLFGETELAAALREMKMYDQNFKLSELMYLFEFVISKHIVESYLIGDEETLRVHCGQSAFNSLNASINERKKKKVYLDTNVLIYKNHELKGAQRMEESSPWFIFTFHTQQINCLKNANDEIIEGNIDDIREVVYTIALSKHPEPEREGLLYPYIVREFAIIGNTPSW	soluble
MRINEMALHEKPRERLITYGAKSLSNVELLAILLNTGRKGFSSIDIANELLKQQSTIRDLKKLSINDLLKIKGIGLYKAVILQAAFELGERINSTSTFDKVQITHPSDVASLMMSTMKDLEQEHFVVLLLNSKNIVTKQAWVYKGTLNSSIIHPREVFNIAIRESSNSIIVVHNHPSGDVTPSKEDITTTYRLKECGDILGINLLDHIIIGDNKFTSLVEAGYFDK	not soluble
MKTRITELLKIDYPIFQGGMAWVADGDLAGAVSKAGGLGIIGGGNAPKEVVKANIDKIKSLTDKPFGVNIMLLSPFVEDIVDLVIEEGVKVVTTGAGNPSKYMERFHEAGIIVIPVVPSVALAKRMEKIGADAVIAEGMEAGGHIGKLTTMTLVRQVATAISIPVIAAGGIADGEGAAAGFMLGAEAVQVGTRFVVAKESNAHPNYKEKILKARDIDTTISAQHFGHAVRAIKNQLTRDFELAEKDAFKQEDPDLEIFEQMGAGALAKAVVHGDVDGGSVMAGQIAGLVSKEETAEEILKDLYYGAAKKIQEEASRWTGVVRNDLEHHHHHH	soluble
MTTSLHRLEALAHPARVRIVRLLAELPDEETAKDPRCGTAYGVCFCHLKEKTGLSAPTVSHHLRILREAGLVEGVRVGRWTYYRLRPGALEAVARELLGLAQRARALEERSA	soluble
MSLSDFLILSDPDLDTLGITTDEIQTALEAAIRAQIRATVHVAPKSALLPGDGRYVMTTLATGNSPALTVVKSVMVSPDNPARGLPGTEGVLLVQDSETGQLRALMQAGWITRMRTAGLSALVARRLGDPAARVVAFIGAGAQARAHLAALCDLFPLQRAVILGRGAENIARLSAAARARGLQAEIADNPHQAIADADLVVSSVTLDHQMTPFLDARWLKPGAFASLTDTGLPWQPDGMAALDPLYIDDLAQEAANPRPMIDPARVGGDLAALLGEDLHSTNVNRHDPSRRAGFLFRGPAIADFALAALALHRAQSLGAGRDTAWPDATREGHHHHHH	soluble
MKSASDPFDLKRFVYAQAPVYRSVVEELRAGRKRGHWMWFVFPQLRGLGSSPLAVRYGISSLEEAQAYLQHDLLGPRLHECTGLVNQVQGRSIEEIFGPPDDLKLCSSMTLFARATDANQDFVALLAKYYGGGEDRRTVALLAVT	soluble
EGLPVLAPVTKDTATSLYTIPFHDGASLVLDVAGLLVWSTCEGGQSPAEIACSSPTCLLANAYPAPGCPAPSCGSDRHDKPCTAYPSNPVTGACAAGSLFHTRFAANTTDGNKPVSEVNVRVLAACAPSKLLASLPRGSTGVAGLAGSGLALPSQVASAQKVPNKFLLCLPTGGPGVAIFGGGPLPWPQFTQSMDYTPLVAKGGSPAHYISARSIKVENTRVPISERALATGGVMLSTRLPYVLLRRDVYRPLVDAFTKALAAQPANGAPVARAVKPVAPFELCYDTKTLGNNPGGYWVPNVLLELDGGSDWAMTGKNSMVDVKPGTACVAFVEMKGVDAGDGSAPAVILGGAQMEDFVLDFDMEKKRLGFLRLPHFTGCSSFNFARST	soluble
AIANDEYYLELSENPVQFENASSVNNVFFDEANKQVFAVRSGGATGVVVKGPDDKSSVAFRMDDKGEVKCIKFSLGNKILAVQRTTKSVDFINFIPDYPHLEFSHECKTKNASILGFCWTNWNEIVFVTDQGIEFYQVLPDKRTLKLLKSQSINVNWYIYCPETAVLLLSTTVQGNVLQPFAFKTATMSKMSKFEIELPAVPKPAKLSLSERDIAVATIYDQLYVMYLKHHSRTTNSPGAEVVLYHLPREGTCKRTNVLRLNTTGKFAINVVDNLVVVHHQTTQTSLIYDIKLRELDGNVNVHQPVLPARSINPFKIPLTGPAAAPSQAPLPCELYSSSWSVFQPDIIISASEGFLWYLQVKLQPTLNLLQDKGKLMDFLLRRRDCKMVILSVCSQMLIGGDKGNLSVVATVFDKLNQVYKEYLDAEQAYTAVNEQNSCFTLYLANTYNNM	soluble
MGLHVPADQHDLDFTRLGPWFSVMVNGEGQRYKVSGQVTHVKPPQSVGFTWGWHDDDDRRGAESHVMFIVEPCAKGARLILDHRELGDDEMSLRHEEGWTSSLRKLAAELEHHHHHH	not soluble
MKCIETPKSAEEWRKVERTFAKKHILRCLGSLDGKHIRIKAPPHSGSLFFNYKHFFSFVLLVVVDADGRVIWVDVGSPGSNNDASIFSDSKLKTILDEEANLPPPTFWSRDFVVKPFVIADGIFKITPRMMTLYGGNGLNISQKVLNKKLSRARVKAEHAFGRLSAKFRILRREMECPYEKSVDIILALCHLHNYLIGKAEDVVNVPIETNMIPYKDGKEQRDYLCRYLNN	not soluble
MSLSKAKTLYEKIYDAHVVVAAPGETPILYIDRHLVHEVTSPQAFDGLREKGRPVRQVSKTFATMDHNVSTTTKDINASGEMARIQMQTLSKNCEEFGVTLYDINHKYQGIVHVMGPELGITLPGMTIVCGDSHTATHGAFGSLAFGIGTSEVEHVLATQTLKQGRAKTMKIEVRGKVAPGITAKDIVLAIIGKTTAAGGTGYVVEFCGEAIRDLSMEGRMTVCNMAIELGAKAGLIAPDATTFNYIKGRKFAPQGSDWDAAVDYWQTLKTDEDAQFDAVVTLEASEIKPQVTWGTNPGQVIAVDEPIPSPSQFADPVERSSAEKALAYMGLEAGKMLSDYKVDKVFVGSCTNSRIEDMRAAAAVAKGKKVASHVQALIVPGSEQVKAQAEAEGLDKIFIEAGFEWRLPGCSMCLAMNNDRLGPGERCASTSNRNFEGRQGRDGRTHLVSPAMAAAAAIAGHFVDIRQEGHHHHHH	soluble
MEEAPFYRDTWVEVDLDAIYNNVTHIKEFIPSDVEIFAVVKGNAYGHDYVPVAKIALEAGATRLAVAFLDEALVLRRAGITAPILVLGPSPPRDINVAAENDVALTVFQKEWVDEAIKLWDGSSTMKYHINFDSGMGRIGIRERKELKGFLKSLEGAPFLELEGVYTHFATADEVETSYFDKQYNTFLEQLSWLKEFGVDPKFVHTANSAATLRFQGITFNAVRIGIAMYGLSPSVEIRPFLPFKLEPALSLHTKVAHIKQVIKGDGISYNVTYRTKTEEWIATVAIGYADGWLRRLQGFEVLVNGKRVPIVGRVTMDQFMIHLPCEVPLGTKVTLIGRQGDEYISATEVAEYSGTINYEIITTISFRVPRIFIRNGKVVEVINYLNDILEENLYFQ	soluble
